The RNAGym collection of RNA variant scans (doi:10.1101/gr.219683.116)

B1: mRNA-splicing (parent)
chain: AGUUGCUGCUGGGAGCUCCAGCACAGUGAAAUGGACAGAAGGGCAGAGCAA

Variants of: B1
Assay: exon inclusion enrichment index; higher = more inclusion; WT1 exon 5 minigene, HEK293

Variant | exon inclusion enrichment index
G5A C6U U7A G8U C9A U10G | 0.00356
C6A U7A C9A U10A G15U C16U | 0.36
G2A U3G G5C C6G U7C U10C | 2.14
C6A U7A C9A U10A G42U G43A | 1.42
U3C U4C G5C C6U G8C C9U U10C | 0.521
C6A U7C C9A U10C C19A | 2.55
G5C C6A U7C G8A U10A C24U A25U | 0.151
C6A U7C C9A U10G G11C | 2.72
G5C C6U G8C C9U U10C C19G A20G | 1.04
G5C C6U G8C C9U U10C A45C G46C | 1.22
G5U C6U G8C C9U U10C | 0.672
G5U G8U C9U U32G G33A | 0.0116
C6A U7A C9A U10A C18G | 0.561
G5U G8U C9U C18A C19U | 0.0019
G5A C6G U7G C9A U32A G33C | 0.0011
G5A C6G U7G C9A A20G G21A | 0.00277
G5A C6G U7G C9A A20G G21U | 0.00168
G5U G8U C9U C22U A23U | 0.0443
U27G G28U | 0.00139
G5A U7C G8C C9U U10C | 1.27
G5C C6G U7C U10C U32G G33A | 1.79
G5C C6A U7C G8A U10A G28U A29U | 0.00263
G5C C6A U7C G8A C9U | 0.616
G5U G8U C9U A37G | 0.303

Variant | exon inclusion enrichment index
G5U G8U C9U A37U | 0.104
G5C C6G U7C U10C G42A G43C | 5.39
C6A U7C C9A U10C U27G G28C | 2.4
G5C C6G U7C U10C C18G C19U | 1.44
C44G A45C | 0.399
G5A U7C G8A U10C A45G | 3.76
G5C C6A U7C G8A U10A U32C G33C | 0.153
G5C C6A U7C G8A U10A G26C U27G | 0.537
G5A U7C G8A U10C G13A | 2.41
G5C C6A U7C G8A U10A G46U A47C | 0.501
G5A C6G U7G C9A A31C | 0.00349
G5C C6U G8C C9U U10C A35U C36G | 0.181
G5C C6A G8C U10A | 0.77
U7A C9A U10A | 0.589
C6A U7C C9A U10C A40G G41C | 3.6
C6A U7C U10A | 0.41
G5C C6U G8C C9U U10C A23U C24G | 2.38
G5C C6G U7C U10C G26A | 4.41
G5A C6U U7A G8U C9A G46U | 0.0405
G5U G8U C9U U10C G11A | 0.133
G5A C6U U7A G8U C9A G46C A47C | 0.144
G5A U7C G8A U10C C19U A20C | 1.64
G5C C6G U7C U10C C36U A37U | 2.2
C6A U7A C9A U10A G21C C22G | 1.63

Variant | exon inclusion enrichment index
G5A U7C G8A U10C G13U A14U | 1.08
G5A C6U U7A G8U C9A A30G | 0.0451
G5A C6G U7G C9A U10G | 0.00589
C6A U7A C9A U10A G12U | 0.96
G5U G8U C9U G21A C22U | 0.0464
G5A C6G U7G G8C C9U | 0.00108
G5A U7C G8A U10C A35C C36A | 1.46
G8U C9A | 0.386
G5U G8U C9U A14U G15U | 0.00524
G46C A47C | 0.227
U4C G5U C6U U7A G8U C9A | 0.269
G5A U7C G8A U10C G11C G12A | 0.351
G5A C6G U7G C9A G38U A39C | 0.000723
C6A U7A C9A U10A U17C C18G | 0.655
G5A C6U U7A G8U C9A U17G C18U | 0.0294
G5U G8U C9U G33U G34C | 0.0164
G5C C6A U7C G8A U10A U32A | 0.0862
G5A U7C G8A U10C A47C G48C | 2.06
G5A U7C G8A U10C A47C G48A | 1.74
C9A U10G | 0.829
G5C C6U G8C C9U U10C G13C A14C | 1.15
G5U G8U C9U A37U G38C | 0.0749
G5U G8U C9U A37U G38A | 0.0389
G33U G34C | 0.0208

Variant | exon inclusion enrichment index
G5C C6A U7C G8A U10A U27C | 0.417
G5A U7C G8A U10C G28U | 0.556
G5C C6G U7C U10C C44G A45G | 1.17
C6A U7A C9A U10A C22A A23U | 0.354
G5C C6U G8C C9U U10C C22U | 1.44
G5A U7C G8A U10C A40G | 1.93
G5A C6U U7A G8U C9A G46U A47U | 0.0891
G5A C6U U7A G8U C9A C18G C19A | 0.0894
C6A U7C C9A U10C G33A G34U | 0.964
G5A C6G U7G C9A U17C C18G | 0.00304
G5A C6G U7G C9A U17C C18A | 0.00107
G5A C6G U7G C9A G42U G43U | 0.00686
U3C U4C G5C C6A U7C G8A U10A | 0.144
G5C C6U G8C C9U U10C A23C C24A | 2.31
C6A U7A C9A U10A G34C A35C | 0.0588
A47C G48U | 0.173
U3C U4G G5A U7C G8A U10C | 2.97
U4A G8U C9U | 0.0172
G5A C6G U7G C9A U27G | 0.000925
G5U C6A U7C G8U C9U | 0.164
C6A U7C C9A U10C G42C G43A | 3.52
C6A U7A C9A U10A C19U A20U | 0.19
C6A U7A C9A U10A G28A A29G | 0.227
G5A C6U U7A G8U C9A A30U A31C | 0.064

Variant | exon inclusion enrichment index
U4A G5U G8U C9U | 0.252
C6A U7C C9A U10C A39G | 2.38
G5C C6G U7C U10C A45C G46U | 1.87
G5C C6A U7C G8A U10A A23C C24U | 0.0196
G5A U7C G8A U10C G46A | 2.32
G5C C6U G8C C9U U10G G11A | 2
G5C C6A U7C G8A U10A G21U C22G | 0.113
C6A U7C G8C C9A U10C | 2.29
G5C C6A U7C G8A U10A G11U G12U | 0.037
G5C C6A U7C G8A U10A G11U G12C | 0.543
G5C C6A U7C G8A U10A G11U G12A | 0.0375
G5A C6G U7G C9A G11A G12U | 0.000779
C6A U7C C9A U10C G33C G34U | 2.34
G5A U7C G8A U10C G15U | 2.27
G5C C6U G8C C9U U10C G11A | 0.742
G5C C6G U7C U10C G12C G13U | 0.128
G5A U7C G8A U10C G46C A47U | 2.03
G5C C6G U7C U10C A37C | 4.16
G5A C6G U7G C9A G15U C16G | 0.00106
G5C C6U G8C C9U U10C A25G G26C | 3.56
U3G U4C G5A C6G U7G C9A | 0.0394
G5C C6U G8C C9U U10A G11U | 0.953
C6A U7C C9A U10C G38A A39G | 2.68
C6A U7C C9A U10C A14G | 4.78

Variant | exon inclusion enrichment index
G5A C6U U7A G8U C9A A37U | 0.0684
C6A U7A C9A U10A A29G A30G | 0.495
G5C C6U G8C C9U U10C G43C | 1.75
G5A C6G U7G C9A C22A A23C | 0.0031
G5A C6U U7A G8U C9A G34U A35C | 0.0139
A35U C36U | 0.000825
G5C C6A U7C G8A U10A A14G | 0.0477
G5U G8U C9U G12C G13C | 0.00507
G38C A39C | 0.158
G5U C6U G8U C9U | 0.0204
A31C | 0.288
A31U | 0.159
G5U G8U C9U A40G G41A | 0.0719
G5A U7C G8A U10C A25C G26A | 4.29
A40C G41A | 0.0344
G5A C6U U7A G8U C9A C36A A37C | 0.0847
G5A U7C G8A U10C A40G G41U | 1.79
G5A U7C G8A U10C A29C A30G | 3.21
G5A C6U U7A G8U C9A G11A G12C | 0.0285
G5A C6U U7A G8U C9A G43U C44G | 0.073
G5C C6U G8C C9U U10C G46C A47U | 1.64
C6A U7A C9A U10A G38C A39U | 0.0576
G5U G8U C9U U10C | 0.561
G5U G8U C9U U10A | 0.00828

Variant | exon inclusion enrichment index
G5A U7C G8A U10C G42U | 2.55
G5A U7C G8A U10C A23G C24A | 3.5
G5A U7C G8A U10C C22U A23C | 1.42
G5C C6G U7C U10C | 3.75
G5C C6G U7C U10G | 1.86
C6G | 0.0263
G5C C6A U7C G8A U10A G28C A29G | 0.241
G5A C6U U7A G8U C9A A29C A30C | 0.142
G5A U7C G8A U10C G41A | 1.44
G5U G8U C9U G33A G34A | 0.0153
C6A U7G | 0.00565
G5U C6G U7C G8U C9U | 0.349
G5C C6U G8C C9U U10C U17C C18A | 1.45
U4G G5A C6A U7C G8A U10A | 0.403
G5C C6G U7C U10C U17G C18A | 3.39
G5A U7C G8A U10C A14U | 0.895
G5U G8U C9U A31U U32C | 0.282
C6A U7C C9A U10C G42U G43U | 3.65
G5A C6G U7G C9A A30C | 0.00196
G5C C6A U7C G8A U10A A45C G46C | 0.0869
G43U C44A | 0.00923
G5C C6U G8C C9U U10C G41U | 2.03
U4G G5A C6G U7G C9A | 0.00812
